How the values were obtained:
[1] = biological target: T1, 人源淀粉样蛋白42 Aβ42 寡聚体 (human, UniProt P05067 672-713); assay: dot blot on nitrocellulose, ECL
T1 construct: domain: Aβ42; Oligomer preparation; also called Aβ42 oli

[2] = biological target: T2, 人源淀粉样蛋白42 Aβ42 纤维体 (human, UniProt P05067 672-713); assay: dot blot on nitrocellulose, ECL
T2 construct: domain: Aβ42; Fibril preparation; also called Aβ42 fib

[3] = biological target: T3, 人源淀粉样蛋白42 Aβ42 单体 (human, UniProt P05067 672-713); assay: ELISA, Aβ coated at 5 μg/mL, 7B8 diluted 1:20,000, OD450
T3 construct: domain: Aβ42; Monomer preparation; also called Aβ42 mon

Measured: binding result

T1 sequence (P05067 672-713 limits assumed): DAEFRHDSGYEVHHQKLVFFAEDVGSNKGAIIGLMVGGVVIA
T2 sequence (P05067 672-713 limits assumed): as above
T3 sequence (P05067 672-713 limits assumed): as above

B1: 靶向淀粉样蛋白的单克隆抗体7B8 (antibody, mouse IgG1, V domains shown)
VH: QVQLQQPGAELVKPGASVKLSCKTSDYSFTSYWMHWVKQRPGQGLEWIGEINPSNGRKKYNEKFKSKATLTVDTSSSTAYMQLSSLTSEDSAVYYCAREGRGYWGQGTTLTVSS
VL: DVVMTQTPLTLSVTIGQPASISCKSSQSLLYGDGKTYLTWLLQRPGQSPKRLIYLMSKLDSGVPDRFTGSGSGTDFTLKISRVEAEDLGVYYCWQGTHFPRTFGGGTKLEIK
notes: also called 抗Aβ3-10的单克隆抗体
binds: all assays above

Source: patent CN113603773A (FIRST HOSPITAL CHINA MEDICAL UNIV, dated 2021)
